According to the nanobody polyreactivity screen of Harvey et al. (2022):

Assay: yeast display, Sf9 membrane polyspecificity reagent, FACS + sequencing; frameworks hold sequencing errors
How it was run: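 Genes from sorted yeast were amplified by colony PCR, read by MiSeq 2 × 250 sequencing and filtered on CDR length. These cells carried a synthetic nanobody library in Saccharomyces cerevisiae BJ5465 and were sorted by FACS into low and high (top ~1%) gates on anti-HA and streptavidin fluorescence. Polyreactivity is labelled according to the gate of origin.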

Row | Sequence | polyreactivity (PSR sort gate)
1 | QVQLVESGGGLVQAGGSLRLSCAASGFTCVRYAMGWYRPAPGKEREFVASISARGGNTFYADSVKGRFTISRDHAKNTVYLQMNSLKPEDTAVYYCAKRGPYGTGYGYWGQGTQLTVSS | high polyreactivity
2 | QVQLVESGGGLVQAGGSLRLSCAASGFTCYNYAMGWYRQAPGKERELVAAITSSGTSTYYADSVKGRFTISRDNAKNTVYLQMNSLKPEDTAVYYCATYVAYHRGYSTYDHWGQGSQVTVSS | low polyreactivity
3 | QVQLVESGGGLVQAGGSLRLSCAASGFTFAAYAMGWYRQAPGKERELVAAISWSGGSTRYADCVKGRYTISRDNAKNTVYLQKNSLIPEDTAVYYCNAVGYRVGIYSSKGDYWGQGTQVTVSS | high polyreactivity
4 | QVQLVESGGGLVQAGGSLRLSCAASGFTFAFYAMGWYRQAPGKERELVAAISWDGVTTYYADSVKGRFTISRDNAKNTVYLQMNSLKPEDTAVYYCAADYPDYAGSFWPSGMYYWGQGTQVTVSS | low polyreactivity
5 | QVQLVESGGGLVQAGGSLRLSCAASGFTFAFYAMGWYRQAPGKERELVAAITGSGGSTYYADSVKGRFTISRDNAKNTVYLQMNSLKPEDTAVYYCAADLVVDYEWYDYWGQGTQVTVSS | high polyreactivity
6 | QVQLVESGGGLVQAGGSLRLSCAASGFTFAGYVLGWYRKAPGKDRELVAAISNSGGRTYADSVKGRFTISRDNAKNTVYLQMNSLKPEDTAVYYCAKKPGGFSQASRVDYDYWGQGTQVTVSS | low polyreactivity
7 | QVQLVESGGGLVQAGGSLRLSCAASGFTFAKYAMGWYRQAPGKERELVAAISSSGGRTYYADSVQGRFTISRDNAKNTVYLQMNSLKPEDTAVYYCAADFSGPFDYWGQGTQVTVSS | high polyreactivity
8 | QVQLVESGGGLVQAGGSLRLSCAASGFTFALYAMGWYRQAPGKEREVVASIDNGVSTNYADSVKGRFTISRDNAKNTVYLQMNSLKPEDTAVYYCAKGPGYGFYKLLSYDSWGQGTQVTVSS | low polyreactivity
9 | QVQLVESGGGLVQAGGSLRLSCAASGFTFAQYAMGWYRQAPGKERELVATISRRGGSTYYADSVKGRFTISRDNAKNTVYLQMNSLKPEDTAVYYCTAAKYLYRHGFLSAGDMYYWGQGTQVTVSS | high polyreactivity
10 | QVQLVESGGGLVQAGGSLRLSCAASGFTFARNAMGWNRQAPGKERELVASITQRGGSTNYADSVKGRFTISRDNAKNTVYFQLNSLKPEDTAVYYCNKASQLYYIQGTYSYGYWGQGSQVTVSS | low polyreactivity
11 | QVQLVESGGGLVQAGGSLRLSCAASGFTFARNAMGWYRQAPGKERELVAAINRSGGSTYYADSVKGRFTISRDNAKNTVYLQMNSLKPEDTAVYYCNKPRLAQQGYDYWGQGTQVTVSS | high polyreactivity
12 | QVQLVESGGGLVQAGGSLRLSCAASGFTFARNAMGWYRQAPGKEWELGATISTSGGSTYYADSVKGRFTISRDNAKNTVYLQMNSLKPEDSAVYYFAASYWKGYRRDYWGQGTQVTVSS | low polyreactivity
13 | QVQLVESGGGLVQAGGSLRLSCAASGFTFATNAMGWYRQAPGTERELVAAISSRGGSTYYADSVKGRFTISRDNAKNTVYLQMNSLKPEDTAVYYCNAYRRLGGYDYWGQGTQVTVSS | high polyreactivity
14 | QVQLVESGGGLVQAGGSLRLSCAASGFTFATYAMGWYRQAPGKERELVAAISKSGGSTYYADSVKGRFTISRDNAKNTVYLQMNSLKPEDTAVYYCAKRRSVRYDYWGQGTQVTVSS | high polyreactivity
15 | QVQLVESGGGLVQAGGSLRLSCAASGFTFAVYVMGWYRQAPGKERELVAAISRSGGSTYYADSVKGRFTISRDNAKNTVYLQMNSLKPEDTAVYYCNARVWAKYDYWGQGTQVTVSS | high polyreactivity
16 | QVQLVESGGGLVQAGGSLRLSCAASGFTFAVYVMGWYRQAPGKERELVATISISVGSTYYADSVKGRFTISRDNAKNTVYLQMNSLKPEDTAVYYCNADPPPEYYPDKDNYWGQGTQVTVSS | low polyreactivity
17 | QVQLVESGGGLVQAGGSLRLSCAASGFTFAYAMGWYRQAPGKERELVAAISFSGGSTYYADSVKGRFTISRDNAKNTVYLQMNSLKPEDTAVYYCNKRGGKRSTMDYWGHGTQVTVSS | low polyreactivity
18 | QVQLVESGGGLVQAGGSLRLSCAASGFTFAYHAMGWYRQAPGKERELVAGINSSGDGTYYADSVKGRFTISRDNAKNTVYLQMNSLKQEDTAVYYCAADYTGFYQDGSYVDYDYWGQGTQVTVSS | low polyreactivity
19 | QVQLVESGGGLVQAGGSLRLSCAASGFTFAYNAMGWYRQAPGKERELVATISWSGGSPYYADSVKGRFTISRDNAKNTVYLQMNSLKPEDTAVYYCATTIFYTYYGLYDYWGQGTQVTVSS | high polyreactivity
20 | QVQLVESGGGLVQAGGSLRLSCAASGFTFAYYAMGWYRQAPGKERELVAGISWRGGRTYYADSVKGRFTISRDNAKNTVYLQMNSLKPEDTAVYYCAKQPGNFGRFDYWGQGTQVTVSS | high polyreactivity
21 | QVQLVESGGGLVQAGGSLRLSCAASGFTFAYYVMGWYIQAPGKETELVAAISISGARTYYAESVKGRFTISRDNSKNTVYLQMNRLKPEDTAVYYCAADRRTDGHDYWGLGTQVTVSS | high polyreactivity
22 | QVQLVESGGGLVQAGGSLRLSCAASGFTFDANAMGWYRQAPGKERELVAAISWSGGSTYYADSVKGRFTISRDNAKNTVYLQMNSLKPEDTAVYYCAARRYSYVGGQGSDYWGQGTKVTVSS | high polyreactivity

Row | Sequence | polyreactivity (PSR sort gate)
23 | QVQLVESGGGLVQAGGSLRLSCAASGFTFDAYAMGWYRQAPGKERELVADINYSVGSTTYADSVKVRFTISRDNAKNTVYLQMNSLKPEDTAVYYCAAQGTWYAWDYDYWGQGTQVTVSS | low polyreactivity
24 | QVQLVESGGGLVQAGGSLRLSCAASGFTFDDNAMGWYRQAPGKERELVAVITKSGGRTYYADSVKGRFTLSRDNAKNTVYLQMNSLKPEDTAVYYCNADGRNWYYKWYDYWGQGTQVTVSS | low polyreactivity
25 | QVQLVESGGGLVQAGGSLRLSCAASGFTFDEKAMGWYRQAPGINYSGASTYYADSVKGRFTISRDNAKNTVYLQMNSLKPEDTAVYYCAAEVVAQMNYWGQGTQVTVSS | low polyreactivity
26 | QVQLVESGGGLVQAGGSLRLSCAASGFTFDENAMGWYRQAPGINYSGASTYYADSVKGRFTISRDNATNTVYLQMNSLKPEDTAVYYCAAEVVAQMNYWGQGTQVTVSS | low polyreactivity
27 | QVQLVESGGGLVQAGGSLRLSCAASGFTFDFYDMGWYRQAPGKERELVAAISWDGGTTYYADSVKGRFTISRDNAKNTVYLQMNSLKPEDTAVYYCAADDWVYVPTRAWYLYEYWGQGTQVTVSS | low polyreactivity
28 | QVQLVESGGGLVQAGGSLRLSCAASGFTFDIYAMGWYRQAPGKERELVADITSGGSTDYADSVKGRFTISRDNAKNTVYLQMNSLKPEDTAVFYCNAAVFYEPEWQYDYWGQGTQVTVSS | low polyreactivity
29 | QVQLVESGGGLVQAGGSLRLSCAASGFTFDIYAMGWYRQAPGKERELVADITSGGSTDYADSVKGRFTISRDNAKNTVYVQMNSLKPEDTAVYYSNAAVFYDPEWQYDYWGQGTQVTVSS | low polyreactivity
30 | QVQLVESGGGLVQAGGSLRLSCAASGFTFDIYAMGWYRQAPGKERELVATISRSGGTTYYADSVKGRFTISRDNAKNTVYLQMNSLKPEDTAVYYCAAGAYSYRYRYRMDYWGQGTQVTVSS | high polyreactivity
31 | QVQLVESGGGLVQAGGSLRLSCAASGFTFDNYAMGWYRQEPGKERELVAAINISGGRTYYADSVKGRFTISRDNAKNTVYLQMNSLKPEDTAVYYCNIYYWYYALDYWGQGTQVTVSS | high polyreactivity
32 | QVQLVESGGGLVQAGGSLRLSCAASGFTFDNYTMGWYRQAPGKERELVAAITSSAGSTDYADSVKGRFTISRDNAKNTVYLQMNSLKPEDTAVYYCNDDFLYGTYDYWGQGTQVTVSS | low polyreactivity
33 | QVQLVESGGGLVQAGGSLRLSCAASGFTFDNYVMGWYRQAPGKERELVAAISKSGTSTYYADSVKGRFTISRDNAKNTVYLQMNSLKPEDTAVSYCAARQYSQEPYDYWGQGTQVTVSS | high polyreactivity
34 | QVQLVESGGGLVQAGGSLRLSCAASGFTFDPYAIGWYRQAPGKERELVAAISISGGRTYYADSVKGRITISRDNAKNTVYVQMISLKPEDSAVYYCAVAQSHYFGGYGYWGQGTKVTVSS | low polyreactivity
35 | QVQLVESGGGLVQAGGSLRLSCAASGFTFDPYAMGWYRQAPGKERELVAAISWIGTNTYYADSVKGRFTISRDNAKNTVYLLMNSLKPEDTAVYYCAADGPTIAVGSYDYWGQGTQVTVSS | low polyreactivity
36 | QVQLVESGGGLVQAGGSLRLSCAASGFTFDQYGMGWYRQAPGKERVLVAGISWGGGTTYYADSVKGRFTISRDNAKNTVYLQMNSLKPEDTAVYYCAAVRPGYPYYGSDYWGQGTQVTVSS | low polyreactivity
37 | QVQLVESGGGLVQAGGSLRLSCAASGFTFDRYAMGWYRQAPGKERELVAAISRSGGSTHYADSVKGRFTISRDNAKNTVYLQMNSLKPEDTAVYYCNKRWFYDGYDYWGQGTQVTVSS | high polyreactivity
38 | QVQLVESGGGLVQAGGSLRLSCAASGFTFDRYAMGWYRQAPGKERELVAAISRSGGSTHYADSVKGRFTISRDNAKNTVYLQMNSLKPEDTAVYYCNKRWYYDGYDYWGQGTQVTVSS | high polyreactivity
39 | QVQLVESGGGLVQAGGSLRLSCAASGFTFDSYAMGWYRQAPGKERELVAAITWDGGSTYYADSVKGRFTISRDNAKNTVYLPMNSLKPEDTAVYYCAAVSGFYDQYDYWGQGTQVTVSS | low polyreactivity
40 | QVQLVESGGGLVQAGGSLRLSCAASGFTFDSYAMGWYRQAPGKERELVAAITWDGGSTYYADSVKGRFTISRDNAKNTVYLQMNSLKPEDTAVYYCAADFGTISIDVYSWMDYWGQGTQVTVSS | low polyreactivity
41 | QVQLVESGGGLVQAGGSLRLSCAASGFTFDSYAMGWYRQAPGKERELVAAMSYRGGTTYYADSVKGRFTISRDNAKNTGYLQMNSLKPEDTAVYYCNRLWKYGYNYWGQGTQVTVSS | high polyreactivity
42 | QVQLVESGGGLVQAGGSLRLSCAASGFTFDSYAMGWYRQAPRKERELVAAITSDGSTYYADSVKGRFTISRDNAKNNVYLQMNSLKAEDTAVYYCAADGISLYATAYDYWGQGTQVTVSS | low polyreactivity
43 | QVQLVESGGGLVQAGGSLRLSCAASGFTFDWNSMGCYRQAPGQERELVATIRWSVGSTYYADSVKGRFTISRDNAKNTVYLQMNSLKPEDTAVYYCAADSQWSYPDYPGEYAYDYWGQGTQVTVSS | low polyreactivity
